Measured values as given in patent US20150125516, “TRANSFERRIN RECEPTOR APTAMERS AND APTAMER-TARGETED DELIVERY” (ALBERT EINSTEIN COLLEGE OF MEDICINE OF YESHIVA UNIVERSITY, published 2015).

Tests used:
[1] = biological target: transferrin receptor (TfR, CD71), native on human cells (Homo sapiens, UniProt P02786 P02786:1-760); experiment: flow; apparent, Jurkat cells, RPMI 10% FBS, tRNA and ssDNA, 37 C 1 h; no staining of ATP-arrested cells; details: chain copies: 2 inferred; label: 32P (filter), AF488 or Atto647N (cells); stem with 12-nt asymmetric bulge, C-rich bulge, GNRA tetraloop
Sequence of transferrin receptor (TfR, CD71), native on human cells (P02786 whole entry, one chain of several): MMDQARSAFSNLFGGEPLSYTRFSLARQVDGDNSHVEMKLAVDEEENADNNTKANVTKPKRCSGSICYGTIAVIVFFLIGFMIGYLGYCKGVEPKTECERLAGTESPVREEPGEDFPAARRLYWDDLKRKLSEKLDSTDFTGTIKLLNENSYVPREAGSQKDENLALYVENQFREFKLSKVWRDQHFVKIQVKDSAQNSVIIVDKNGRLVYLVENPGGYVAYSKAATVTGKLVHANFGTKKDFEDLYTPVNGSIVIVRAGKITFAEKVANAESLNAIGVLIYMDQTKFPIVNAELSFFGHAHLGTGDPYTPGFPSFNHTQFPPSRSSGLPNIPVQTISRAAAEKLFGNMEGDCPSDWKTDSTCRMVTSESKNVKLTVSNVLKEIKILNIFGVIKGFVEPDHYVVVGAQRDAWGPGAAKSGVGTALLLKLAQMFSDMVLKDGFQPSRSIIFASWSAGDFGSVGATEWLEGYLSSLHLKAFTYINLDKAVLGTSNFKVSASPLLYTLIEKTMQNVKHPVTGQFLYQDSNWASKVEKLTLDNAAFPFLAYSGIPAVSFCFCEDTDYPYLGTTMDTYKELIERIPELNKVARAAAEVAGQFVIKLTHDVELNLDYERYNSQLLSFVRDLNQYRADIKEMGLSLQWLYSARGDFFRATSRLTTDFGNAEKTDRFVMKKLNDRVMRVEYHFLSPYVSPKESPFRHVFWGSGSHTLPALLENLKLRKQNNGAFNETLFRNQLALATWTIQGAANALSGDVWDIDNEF
Method: Following a 1 hour incubation at 37° C., the cells were washed twice with 1 mL FACS buffer and then resuspended in 500 μL FACS buffer containing 7AAD to exclude dead cells in the analysis. The apparent binding constant was determined from a fit of the mean fluorescence versus the aptamer concentration using the Eq. 1 above.

[2] = biological target: transferrin receptor (TfR, CD71), recombinant from pAcGP67A-TfR (Homo sapiens, UniProt P02786 P02786:121-760); experiment: filter; DPBS with Mg2+ and Ca2+, room temperature, 30 min; details: tags: His-tag; expressed in Sf9 insect cells, plasmid pAcGP67A-TfR (Addgene); chain copies: 2 inferred; label: 32P (filter), AF488 or Atto647N (cells); stem with 12-nt asymmetric bulge, C-rich bulge, GNRA tetraloop
Sequence of transferrin receptor (TfR, CD71), recombinant from pAcGP67A-TfR (P02786 121-760, one chain of several): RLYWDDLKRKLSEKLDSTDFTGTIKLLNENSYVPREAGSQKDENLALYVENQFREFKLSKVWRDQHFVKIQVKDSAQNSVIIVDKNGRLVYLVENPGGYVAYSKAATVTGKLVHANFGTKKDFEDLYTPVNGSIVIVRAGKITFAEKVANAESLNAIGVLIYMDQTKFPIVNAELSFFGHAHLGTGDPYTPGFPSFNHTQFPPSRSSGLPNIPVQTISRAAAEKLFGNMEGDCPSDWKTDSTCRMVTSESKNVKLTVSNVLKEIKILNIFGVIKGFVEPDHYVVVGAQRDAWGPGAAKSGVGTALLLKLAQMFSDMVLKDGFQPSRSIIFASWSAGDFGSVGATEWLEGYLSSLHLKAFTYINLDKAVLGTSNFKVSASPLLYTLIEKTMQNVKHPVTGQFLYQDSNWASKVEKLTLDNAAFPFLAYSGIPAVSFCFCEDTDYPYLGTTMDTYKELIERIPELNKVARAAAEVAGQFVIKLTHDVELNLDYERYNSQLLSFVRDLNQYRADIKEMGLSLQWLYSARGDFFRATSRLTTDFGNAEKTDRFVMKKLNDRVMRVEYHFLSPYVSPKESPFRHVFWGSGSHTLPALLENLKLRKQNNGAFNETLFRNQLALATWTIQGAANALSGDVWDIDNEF

GGGGGAUCAAUCCAAGGGACCCGGAAACGCUCCCUUACACCCC (ssRNA, 2'-F pyrimidines; 3' idT; 5' thiol C6) [c2.min] showed a Kd [1] of 104 nM and a Kd [2] of 102 nM.
